From publication PMC10980823, “Structural basis of Acinetobacter type IV pili targeting by an RNA virus” (Nature Communications, 2024)
Where “and” joins values, the source holds several entries; their conditions need not be identical. Equal values may be shown once.

B1: AP205 mature virion (complex)
chain 1: MNMYKWVPESIRDSGEGQPSYSNNGDYAPSGPWVAAGIHTMPQSLRDSMRNSIMVTAQARRDVIGPEWGPDGRFTGYASVIGTPDPKPADIVNKFTVERRPVSNGNFQQRVKAGDIVVAPYTSDGKITVKLVAGQKDISSTPDYDYRIDSSLASSAGFVVAGERWYYTKRHFIIPRYFQNWRMRRRKYVTGWVMPTFYSPKEIFNRLKDSLVPDTGLVTQVWADNNTKRMDFLTAMAEIPQTLSSFLDALGYLGSLIKDFKRRRFFLNKAHQRIRNKLGVSFAERRSQIVSKYDRKIASARKPAIIVKLRQRKEKALKALDKMRVREEKKMIREFATQAASLWLSFRYEIMPLYYQSQDVLDVIANSTSEFMTSRDFVAKAINIGIPLEWNLDQENLVSQPRHNVMVKSKLSPENNIGKTLSVNPFTTAWELLTLSFVVDWFVNFGDVIAGFTGGYSDDSGATASWRFDDKKVFHLKNIPSAMVIVDINFYTRQVIDPRLCGGLAFSPKLNLFRYLDAMSLSWNRSRLKISRAT
chain 2: ANKPMQPITSTANKIVWSDPTRLSTTFSASLLRQRVKVGIAELNNVSGQYVSVYKRPAPKPEGCADACVIMPNENQSIRTVISGSAENLATLKAEWETHKRNVDTLFASGNAGLGFLDPTAAIVSSDTT
B2: AP205 maturation protein (Mat) (natural protein, Acinetobacter phage AP205)
chain: B1 chain 1
notes: maturation protein (Mat) of Acinetobacter phage AP205, 534 amino acids as printed; native protein in the virion, where two copies (inner and outer Mat) form a dimer; Native virion protein; models of both copies are in PDB 8TOC; also called inner Mat; outer Mat; source: in AP205 virions grown on A. gp16, purified (CsCl gradient)
B3: AP205 coat protein (Coat) (natural protein)
chain: B1 chain 2
notes: coat protein (Coat) of Acinetobacter phage AP205; native protein of the capsid shell; also forms T=3 and T=4 icosahedral particles; also called Coat-dimer; Coat shell; source: in AP205 virions and VLPs grown on A. gp16, purified (CsCl gradient)

Key:
[1] = molecular target: Acinetobacter genomosp. 16 type IV pilus (T4P) mature pilin (Acinetobacter genomosp. 16 (endogenous)); test: cryo-EM structure; purified AP205 and purified T4P mixed at 1:1 volume ratio at 30 C for 30 min; AP205 with two T4P at 3.6 A, with one T4P at 4.2 A; local maps of inner Mat-T4P at 8.2 A and outer Mat-T4P at 8.6 A
[2] = molecular target: the molecule itself; test: cryo-EM structure; single-particle cryo-EM of purified apo AP205; asymmetric reconstruction of the mature virion at 3.1 A; icosahedral T=3 (3.2 A) and T=4 (3.4 A) particles from the same data
[3] = molecular target: B2; test: as above; conditions: both partners purified

| Binder | stoichiometry N [1] | stoichiometry N [2] | binding result [3] |
| --- | --- | --- | --- |
| B1 | 2 and 1 | – | – |
| B2 | – | 2 | – |
| B3 | – | 178 | binds |
